B1: MKK6 D-site peptide / p38-alpha (MAPK14) L195A, full length (parent complex)
chain 1: SQSKGKKRNPGLKIPKEAFEQP
chain 2: MSQERPTFYRQELNKTVWEVPERYQNLSPVGSGAYGSVCAAFDTKTGHRVAVKKLSRPFQSIIHAKRTYRELRLLKHMKHENVIGLLDVFTPARSLEEFNDVYLVTHLMGADLNNIVKCQKLTDDHVQFLIYQILRGLKYIHSADIIHRDLKPSNLAVNEDCELKILDFGLARHTDDEMTGYVATRWYRAPEIMANWMHYNQTVDIWSVGCIMAELLTGRTLFPGTDHIDQLKLILRLVGTPGAELLKKISSESARNYIQSLAQMPKMNFANVFIGANPLAVDLLEKMLVLDSDKRITAAQALAHAYFAQYHDPDDEPVAEPYDQSFESRDFLIDEWKSLTYDEVISFVPPPLDQEEMES

Variants of: B1

| Variant | screen value |
| --- | --- |
| chain 1 SQSKGKARAPGLKIPKEAFEQP [chain 1 K7A, chain 1 N9A] | 0.105 Z-score of the enrichment rate within one screen of 711 sequences |
| chain 1 SQSAGAKRNPGLKIPKEAFEQP [chain 1 K4A, chain 1 K6A] | -0.342 Z-score of the enrichment rate within one screen of 711 sequences |
| chain 1 SQSAAKKRNPGLKIPKEAFEQP [chain 1 K4A, chain 1 G5A] | 0.605 Z-score of the enrichment rate within one screen of 711 sequences |
| chain 1 SQSKGKKRNPGLMIPKEAFEQP [chain 1 K13M] | 0.213 Z-score of the enrichment rate within one screen of 711 sequences |
| chain 1 SQSKGKKRNPGLQIPKEAFEQP [chain 1 K13Q] | -0.188 Z-score of the enrichment rate within one screen of 711 sequences |
| chain 1 SQSKGKKRNPGLYIPKEAFEQP [chain 1 K13Y] | -0.0639 Z-score of the enrichment rate within one screen of 711 sequences |
| chain 1 SQSKGKKRNPELKIPKEAFEQP [chain 1 G11E] | 0.286 Z-score of the enrichment rate within one screen of 711 sequences |
| chain 1 SQSKGKKRNPWLKIPKEAFEQP [chain 1 G11W] | 0.816 Z-score of the enrichment rate within one screen of 711 sequences |
| chain 1 SQSKGKKRNPTLKIPKEAFEQP [chain 1 G11T] | 1.22 Z-score of the enrichment rate within one screen of 711 sequences |
| chain 1 SQSKGKKRNPILKIPKEAFEQP [chain 1 G11I] | 0.58 Z-score of the enrichment rate within one screen of 711 sequences |
| chain 1 SQSKAKKRNAGLKIPKEAFEQP [chain 1 G5A, chain 1 P10A] | 0.354 Z-score of the enrichment rate within one screen of 711 sequences |
| chain 1 SQSKIKKRNPGLKIPKEAFEQP [chain 1 G5I] | 2.27 Z-score of the enrichment rate within one screen of 711 sequences |
| chain 1 SQSKEKKRNPGLKIPKEAFEQP [chain 1 G5E] | 0.392 Z-score of the enrichment rate within one screen of 711 sequences |
| chain 1 SQSKPKKRNPGLKIPKEAFEQP [chain 1 G5P] | 1.65 Z-score of the enrichment rate within one screen of 711 sequences |
| chain 1 SQSKYKKRNPGLKIPKEAFEQP [chain 1 G5Y] | 2 Z-score of the enrichment rate within one screen of 711 sequences |
| chain 1 SQSKRKKRNPGLKIPKEAFEQP [chain 1 G5R] | 3.17 Z-score of the enrichment rate within one screen of 711 sequences |
| chain 1 SQSKGKKRNPALAIPKEAFEQP [chain 1 G11A, chain 1 K13A] | -0.412 Z-score of the enrichment rate within one screen of 711 sequences |
| chain 1 SQSAGKKRNPGLKIAKEAFEQP [chain 1 K4A, chain 1 P15A] | 1.47 Z-score of the enrichment rate within one screen of 711 sequences |
| chain 1 SQSKGKRRNPGLKIPKEAFEQP [chain 1 K7R] | 2.22 Z-score of the enrichment rate within one screen of 711 sequences |
| chain 1 SQSKGKYRNPGLKIPKEAFEQP [chain 1 K7Y] | 0.574 Z-score of the enrichment rate within one screen of 711 sequences |
| chain 1 SQSKGKPRNPGLKIPKEAFEQP [chain 1 K7P] | 0.368 Z-score of the enrichment rate within one screen of 711 sequences |
| chain 1 SQSKGKNRNPGLKIPKEAFEQP [chain 1 K7N] | 1.02 Z-score of the enrichment rate within one screen of 711 sequences |
| chain 1 SQSKGKIRNPGLKIPKEAFEQP [chain 1 K7I] | 0.69 Z-score of the enrichment rate within one screen of 711 sequences |
| chain 1 SQSKAKKRNPGLKIPAEAFEQP [chain 1 G5A, chain 1 K16A] | 0.905 Z-score of the enrichment rate within one screen of 711 sequences |
| chain 1 SQSKAKKRNPGAKIPKEAFEQP [chain 1 G5A, chain 1 L12A] | -0.353 Z-score of the enrichment rate within one screen of 711 sequences |
| chain 1 SQSKGKKRNPGLKIPREAFEQP [chain 1 K16R] | 1.75 Z-score of the enrichment rate within one screen of 711 sequences |
| chain 1 SQSKGKKRNPGLKIPFEAFEQP [chain 1 K16F] | 0.506 Z-score of the enrichment rate within one screen of 711 sequences |
| chain 1 SQSKGKKRNPGLKIPSEAFEQP [chain 1 K16S] | 0.134 Z-score of the enrichment rate within one screen of 711 sequences |
| chain 1 SQSKGKKRNPGLKIPHEAFEQP [chain 1 K16H] | 0.315 Z-score of the enrichment rate within one screen of 711 sequences |
| chain 1 SQSAGKKRAPGLKIPKEAFEQP [chain 1 K4A, chain 1 N9A] | 0.386 Z-score of the enrichment rate within one screen of 711 sequences |

Continued, values first:

| screen value | Variant |
| --- | --- |
| 0.178 Z-score of the enrichment rate within one screen of 711 sequences | chain 1 SQSKGKKWNPGLKIPKEAFEQP [chain 1 R8W] |
| -0.084 Z-score of the enrichment rate within one screen of 711 sequences | chain 1 SQSKGKKGNPGLKIPKEAFEQP [chain 1 R8G] |
| -0.0927 Z-score of the enrichment rate within one screen of 711 sequences | chain 1 SQSKGKKVNPGLKIPKEAFEQP [chain 1 R8V] |
| -0.0227 Z-score of the enrichment rate within one screen of 711 sequences | chain 1 SQSKGKKPNPGLKIPKEAFEQP [chain 1 R8P] |
| 0.909 Z-score of the enrichment rate within one screen of 711 sequences | chain 1 SQSKGKKRNPGLKIQKEAFEQP [chain 1 P15Q] |
| 0.934 Z-score of the enrichment rate within one screen of 711 sequences | chain 1 SQSKGKKRNPGLKIDKEAFEQP [chain 1 P15D] |
| 0.627 Z-score of the enrichment rate within one screen of 711 sequences | chain 1 SQSKGKKRNPGLKIWKEAFEQP [chain 1 P15W] |
| 1.84 Z-score of the enrichment rate within one screen of 711 sequences | chain 1 SQSKGKKRNPGLKIMKEAFEQP [chain 1 P15M] |
| 2.36 Z-score of the enrichment rate within one screen of 711 sequences | chain 1 SQSKGKKRNPGLKISKEAFEQP [chain 1 P15S] |
| 3.1 Z-score of the enrichment rate within one screen of 711 sequences | chain 1 SQSKGKKRNPGLKIVKEAFEQP [chain 1 P15V] |
| 1.61 Z-score of the enrichment rate within one screen of 711 sequences | chain 1 SQSKGKKRNPGLKIIKEAFEQP [chain 1 P15I] |
| 1.18 Z-score of the enrichment rate within one screen of 711 sequences | chain 1 SQSKGKKRNPGLKIHKEAFEQP [chain 1 P15H] |
| 2.08 Z-score of the enrichment rate within one screen of 711 sequences | chain 1 SQSKGKKRRPGLKIPKEAFEQP [chain 1 N9R] |
| 1.99 Z-score of the enrichment rate within one screen of 711 sequences | chain 1 SQSKGKKRWPGLKIPKEAFEQP [chain 1 N9W] |
| 0.874 Z-score of the enrichment rate within one screen of 711 sequences | chain 1 SQSKGKKRQPGLKIPKEAFEQP [chain 1 N9Q] |
| 1.1 Z-score of the enrichment rate within one screen of 711 sequences | chain 1 SQSKGKKRMPGLKIPKEAFEQP [chain 1 N9M] |
| 0.56 Z-score of the enrichment rate within one screen of 711 sequences | chain 1 SQSKGKKRIPGLKIPKEAFEQP [chain 1 N9I] |
| -0.296 Z-score of the enrichment rate within one screen of 711 sequences | chain 1 SQAKGKKANPGLKIPKEAFEQP [chain 1 S3A, chain 1 R8A] |
| 2.03 Z-score of the enrichment rate within one screen of 711 sequences | chain 1 SQAKAKKRNPGLKIPKEAFEQP [chain 1 S3A, chain 1 G5A] |
| 0.706 Z-score of the enrichment rate within one screen of 711 sequences | chain 1 SQSKGKKRNPGLKIPVEAFEQP [chain 1 K16V] |
| -0.107 Z-score of the enrichment rate within one screen of 711 sequences | chain 1 SQSKGKKRNPGLKIPYEAFEQP [chain 1 K16Y] |
